What was measured:
Test in all cases: purified protein
Format in all cases: biochemical, Paenibacillus alvei
[1] = test system: T1, CC(=O)N[C@H]1[C@@H](OP(=O)(O)OP(=O)(O)OC[C@H]2O[C@@H](n3ccc(=O)[nH]c3=O)[C@H](O)[C@@H]2O)O[C@H](CO)[C@@H](O)[C@@H]1O; conditions: forward reaction, 10 mM sodium phosphate pH 8.0, 50 mM MgCl2, 30 °C, apparent constant
T1 construct: amino acids 1-384, Leu-Glu linker and C-terminal His6 tag, pET22b(+), E. coli BL21(DE3), Ni-NTA

purified protein [2] = substrate: CC(=O)N[C@@H]1[C@@H](OP(=O)(O)OP(=O)(O)OC[C@H]2O[C@@H](n3ccc(=O)[nH]c3=O)[C@H](O)[C@@H]2O)O[C@H](CO)[C@@H](O)[C@@H]1O; conditions: reverse reaction, 10 mM sodium phosphate pH 8.0, 50 mM MgCl2, 30 °C, 45 min, apparent constant
purified protein [3] = substrate: CC(=O)N[C@H]1[C@@H](OP(=O)(O)OP(=O)(O)OC[C@H]2O[C@@H](n3ccc(=O)[nH]c3=O)[C@H](O)[C@@H]2O)O[C@H](CO)[C@@H](O)[C@@H]1O; conditions: forward reaction, 10 mM sodium phosphate pH 8.0, 50 mM MgCl2, 30 °C, 5 min, apparent constant
[4] = kcat 0.05 in text fits printed kcat/Km 0.03, table prints 0.53

“PaMnaA (MnaA.His6) (Paenibacillus alvei; H241A)” showed a Km [1] of 3.27 mM, a kcat [1] of 0.53 s⁻¹ and a kcat/Km [1] of 160 M⁻¹ s⁻¹.

Molecule “PaMnaA (MnaA.His6) (Paenibacillus alvei; Q42A)” has a Km [1, 4] of 1.61 mM, a kcat [1, 4] of 0.05 s⁻¹ and a kcat/Km [1, 4] of 30 M⁻¹ s⁻¹.

In the case of “PaMnaA (MnaA.His6) (Paenibacillus alvei; Q69A)”, the Km [1] is reported as 8.92 mM, the kcat [1] is reported as 37.9 s⁻¹ and the kcat/Km [1] is reported as 4250 M⁻¹ s⁻¹.

B1: PaMnaA (MnaA.His6) (Paenibacillus alvei) (protein)
chain: MSKVKVMTVFGVRPEAIKMAPLILELQKHPEHIESIVCVTAQHRQMLDQVLDVFNIKPDYDLDIMQARQTLNDISVRVLQGLEPVLQEAKPDIVLVHGDTLTTFLASYAAFMQQIKVGHVEAGLRTWNKLSPFPEEMNRQLTGVLADLHFAPTDWSASNLRKENKQDASIFVTGNTVTDVFQYTVRSDYKHEVLDWAQGKRLVLMTAHRRESQGEPHRNIFRAVRRIADEFEDIAIVYPVHPSPAVREPAHEMLGDHPRIKLIDPLDVVDLHNFYPHTHLILTDSGGLQEEAPSFGIPVLVLRETTERPEGIDAGTLELVGTDEEKVYARAKALLSDETTYARMSKAANPYGDGKASQRIVSAILHSFGVLEERPEPFHTKFTN
notes: amino acids 1-384, Leu-Glu linker and C-terminal His6 tag, pET22b(+), E. coli BL21(DE3), Ni-NTA
B1 was tested, and the Km (purified protein [2]) was 2.41 mM, the kcat (purified protein [2]) was 6.02 s⁻¹ and the Km (purified protein [3]) was 3.91 mM. It also gave a kcat (purified protein [3]) of 33.4 s⁻¹ and a kcat/Km (purified protein [3]) of 8560 M⁻¹ s⁻¹.
